Data reported in patent publication US20170182124A1, “FGF21 Derivatives and Uses Thereof” (Novo Nordisk A/S, priority 2014, published 2017).
Where two headings read alike, the source gives them in different places.

B1: 16-[[4-[[(1S)-4-[2-[2-[2-[2-[2-[2-[[(1S)-5-[(2-acetamido]-1-carboxy-pentyl]amino]-2-oxo-ethoxy]ethoxy]ethylamino]-2-oxo-ethoxy]ethoxy]ethylamino]-1-carboxy-4-oxo-butyl]carbamoyl]cyclohexyl]methylamino … (protein)
chain: HPIPDSSPLLQFGGQVRQRYLYTDDAQQTEAHLEIREDGTVGGAADQSPESLLQLKALKPGVIQILGVKTSRFLCQRPDGALYGSLHFDPEACSFRELLLEDGYNVYQSEAHGLPLHLPGQKSPHRDPAPRGPARFLPLPGLPPALPEPPGILAPQPPDVGSSDPLSLVGPSQGRSPSYCS
B2: 12-[[4-[[(1S)-4-[2-[2-[2-[2-[2-[2-(2-acetamidoethylamino)-2-oxo-ethoxy]ethoxy]ethylamino]-2-oxo-ethoxy]ethoxy]ethylamino]-1-carboxy-4-oxo-butyl]carbamoyl]cyclohexyl]methylamino]-12-oxo-dodecanoic … (protein)
chain: HPIPDSSPLLQFGGQVRQRYLYTDDAQQTEAHLEIREDGTVGGAADQSPESLLQLKALKPGVIQILGVKTSRFLCQRPDGALYGSLHFDPEACSFRELLLEDGYNVYQSEAHGLPLHLPGQKSPHRDPAPRGPARFLPLPGLPPALPEPPGILAPQPPDVGSSDPLSLVGPSQGRSPSYCS
B3: 4-[10-[[(1S)-4-[2-[2-[2-[2-[2-[2-[[(1S)-5-acetamido-1-carboxy-pentyl]amino]-2-oxo-ethoxy]ethoxy]ethylamino]-2-oxo-ethoxy]ethoxy]ethylamino]-1-carboxy-4-oxo-butyl]amino]-10-oxo-decoxy]benzoic … (protein)
chain: HPIPDSSPLLQFGGQVRQRYLYTDDAQQTEAHLEIREDGTVGGAADQSPESLLQLKALKPGVIQILGVKTSRFLCQRPDGALYGSLHFDPEACSFRELLLEDGYNVYQSEAHGLPLHLPGQKSPHRDPAPRGPARFLPLPGLPPALPEPPGILAPQPPDVGSSDPLSLVGPSQGRSPSYCS
B4: 18-[[4-[[(1S)-4-[2-[2-[2-[2-[2-[2-[[(1S)-5-[(2-acetamido]-1-carboxy-pentyl]amino]-2-oxo-ethoxy]ethoxy]ethylamino]-2-oxo-ethoxy]ethoxy]ethylamino]-1-carboxy-4-oxo-butyl]carbamoyl]cyclohexyl]methylamino … (protein)
chain: HPIPDSSPLLQFGGQVRQRYLYTDDAQQTEAHLEIREDGTVGGAADQSPESLLQLKALKPGVIQILGVKTSRFLCQRPDGALYGSLHFDPEACSFRELLLEDGYNVYQSEAHGLPLHLPGQKSPHRDPAPRGPARFLPLPGLPPALPEPPGILAPQPPDVGSSDPLSLVGPSQGRSPSYCS
B5: 4-[10-[[(1S)-4-[2-[2-[2-[2-[2-[2-[[(1S)-5-acetamido-1-carboxy-pentyl]amino]-2-oxo-ethoxy]ethoxy]ethylamino]-2-oxo-ethoxy]ethoxy]ethylamino]-1-carboxy-4-oxo-butyl]amino]-10-oxo-decoxy]benzoic … (protein)
chain: HPIPDSSPLLQFGGQVRQRYLYTDDAQQTEAHLEIREDGTVGGAADQSPESLLQLKALKPGVIQILGVKTSRFLCQRPDGALYGSLHFDPEACSFRELLLEDGYNVYQSEAHGLPLHLPGQKSPHRDPAPRGPARFLPLPGLPPALPEPPGILAPQPPDVGSSDPLSLVGPSQGRSPSYAC
B6: 4-[10-[[4-[2-[2-[2-[2-[2-[2-[[(1S)-5-acetamido-1-carboxy-pentyl]amino]-2-oxo-ethoxy]ethoxy]ethylamino]-2-oxo-ethoxy]ethoxy]ethylamino]-4-oxo-butyl]sulfonylamino]-10-oxo-decoxy]benzoic … (protein)
chain: HPIPDSSPLLQFGGQVRQRYLYTDDAQQTEAHLEIREDGTVGGAADQSPESLLQLKALKPGVIQILGVKTSRFLCQRPDGALYGSLHFDPEACSFRELLLEDGYNVYQSEAHGLPLHLPGQKSPHRDPAPRGPARFLPLPGLPPALPEPPGILAPQPPDVGSSDPLSLVGPSQGRSPSYAC
B7: S{Beta-180}-2-aminoethylsulfanyl-Ala[Gln121, Leu168, Cys180]FGF21 (protein)
chain: AHPIPDSSPLLQFGGQVRQRYLYTDDAQQTEAHLEIREDGTVGGAADQSPESLLQLKALKPGVIQILGVKTSRFLCQRPDGALYGSLHFDPEACSFRELLLEDGYNVYQSEAHGLPLHLPGQKSPHRDPAPRGPARFLPLPGLPPALPEPPGILAPQPPDVGSSDPLSLVGPSQGRSPSYCS
modifications: N-terminal Ala; cysteamine disulfide on Cys180
B8: S{Beta-181}-2-aminoethylsulfanyl-Ala[Gln121, Leu168, Cys181]FGF21 (protein)
chain: AHPIPDSSPLLQFGGQVRQRYLYTDDAQQTEAHLEIREDGTVGGAADQSPESLLQLKALKPGVIQILGVKTSRFLCQRPDGALYGSLHFDPEACSFRELLLEDGYNVYQSEAHGLPLHLPGQKSPHRDPAPRGPARFLPLPGLPPALPEPPGILAPQPPDVGSSDPLSLVGPSQGRSPSYAC
modifications: N-terminal Ala; cysteamine disulfide on Cys181

What was measured:
3T3-L1 adipocytes = 3T3-L1 adipocytes (Mus musculus, UniProt P16092+Q99N32); experiment: Glucose uptake in 3T3-L1 adipocytes; assay type: cell-based; conditions: stimulated 20 hours, 3H-deoxy-glucose
3T3-L1 adipocytes, sequence (Q99N32 whole entry): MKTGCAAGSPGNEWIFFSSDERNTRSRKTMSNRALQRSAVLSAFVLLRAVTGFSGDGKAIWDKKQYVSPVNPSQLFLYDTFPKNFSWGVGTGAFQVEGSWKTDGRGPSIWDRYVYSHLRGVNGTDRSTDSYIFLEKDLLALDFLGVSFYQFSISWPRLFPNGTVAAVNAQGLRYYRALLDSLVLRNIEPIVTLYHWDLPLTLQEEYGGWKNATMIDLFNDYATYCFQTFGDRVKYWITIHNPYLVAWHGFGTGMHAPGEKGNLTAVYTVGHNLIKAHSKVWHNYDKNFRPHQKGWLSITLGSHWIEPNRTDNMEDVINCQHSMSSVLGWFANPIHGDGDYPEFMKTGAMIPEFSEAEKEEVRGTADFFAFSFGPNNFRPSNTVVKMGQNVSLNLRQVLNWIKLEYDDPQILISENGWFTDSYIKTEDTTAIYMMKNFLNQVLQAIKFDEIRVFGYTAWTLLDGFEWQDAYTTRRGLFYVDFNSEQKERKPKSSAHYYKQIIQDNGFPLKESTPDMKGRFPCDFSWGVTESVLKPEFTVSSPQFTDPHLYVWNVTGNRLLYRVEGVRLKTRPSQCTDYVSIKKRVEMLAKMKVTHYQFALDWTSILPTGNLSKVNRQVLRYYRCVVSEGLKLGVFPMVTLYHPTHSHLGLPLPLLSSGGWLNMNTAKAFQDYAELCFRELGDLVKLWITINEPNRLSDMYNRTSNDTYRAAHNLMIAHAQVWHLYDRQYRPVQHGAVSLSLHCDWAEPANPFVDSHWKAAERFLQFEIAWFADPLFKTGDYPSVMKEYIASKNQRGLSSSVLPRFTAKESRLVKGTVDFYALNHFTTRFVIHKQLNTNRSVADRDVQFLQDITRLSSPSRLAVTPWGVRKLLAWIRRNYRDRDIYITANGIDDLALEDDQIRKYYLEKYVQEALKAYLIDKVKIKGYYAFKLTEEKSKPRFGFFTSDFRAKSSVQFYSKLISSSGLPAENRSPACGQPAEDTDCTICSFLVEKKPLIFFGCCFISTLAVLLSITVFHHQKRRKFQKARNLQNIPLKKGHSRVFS
3T3-L1 adipocytes, sequence (P16092 22-822): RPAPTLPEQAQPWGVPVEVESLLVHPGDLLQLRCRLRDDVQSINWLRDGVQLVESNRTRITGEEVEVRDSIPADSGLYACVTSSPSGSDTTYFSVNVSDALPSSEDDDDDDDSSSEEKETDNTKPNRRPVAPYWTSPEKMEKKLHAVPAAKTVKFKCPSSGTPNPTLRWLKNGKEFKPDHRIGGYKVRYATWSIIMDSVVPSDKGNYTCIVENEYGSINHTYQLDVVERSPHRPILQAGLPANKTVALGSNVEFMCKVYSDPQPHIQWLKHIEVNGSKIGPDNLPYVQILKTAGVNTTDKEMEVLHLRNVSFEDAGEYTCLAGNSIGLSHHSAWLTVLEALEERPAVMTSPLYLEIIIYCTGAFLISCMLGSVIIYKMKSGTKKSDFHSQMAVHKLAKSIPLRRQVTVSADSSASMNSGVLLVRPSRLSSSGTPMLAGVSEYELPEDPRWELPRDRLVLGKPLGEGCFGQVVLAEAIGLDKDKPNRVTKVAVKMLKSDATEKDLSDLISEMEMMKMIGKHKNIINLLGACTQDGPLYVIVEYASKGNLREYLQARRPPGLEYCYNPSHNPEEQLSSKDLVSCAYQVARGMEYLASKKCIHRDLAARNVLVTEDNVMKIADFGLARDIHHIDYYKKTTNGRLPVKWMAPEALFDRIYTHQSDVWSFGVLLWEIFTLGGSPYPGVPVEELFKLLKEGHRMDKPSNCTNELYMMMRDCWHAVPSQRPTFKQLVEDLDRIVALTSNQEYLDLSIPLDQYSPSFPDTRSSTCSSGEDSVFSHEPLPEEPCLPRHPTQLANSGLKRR
Method: The C-terminal modified analogues were tested for their ability to increase glucose uptake in 3T3-L1 mouse adipocytes. The following assay was used for determining the biological activity, or potency, of FGF21 analogues and derivatives of the invention.
The in vitro potency may also be determined in an assay with mouse 3T3-L1 adipocytes by testing the FGF21 analogues and derivatives for their ability to increase glucose uptake into adipocytes. Differentiated 3T3-L1 adipocytes endogenously express FGFR1c and BKL. The 3T3-L1 cells are unresponsive to FGF21 until after differentiated as differentiation lead to expression of the co-receptor BKL. Activation of the FGFR1 receptor/BKL complex increase the expression of glucose transporter 1 (GLUT1) and therefore FGF21 agonists will lead to an increased amount of glucose taken into the adipocytes in a dose responsive manner.
Mouse 3T3-L1 fibroblasts (e.g. available from ATCC, catalogue no. CL-173) were maintained in basal medium (DMEM (4500 mg/I Glucose) with 10% Fetal Bovine Serum (FBS) and 1% Penicillin/Streptomycin). The cells are not allowed to reach confluence and should be passed (transferred to new vials) before reaching approx. 60% of confluency (by visual inspection).
For the glucose uptake assay, cells were 15.000 cells/well in a 96 well plate (BIOCOAT), and when they reached confluency (high density, with a view to have differentiated adipose cells made), the medium was changed from basal medium to basal medium containing Troglitazone, IBMX, Dexamethasone (commercially available from, e.g., Sigma) and human insulin (commercially available from, e.g., Novo Nordisk A/S).
The cells were used 7-9, days after initiation of differentiation. The cells were stimulated with increasing concentrations (0-300 nM) of the FGF21 analogues or derivatives of the invention for 20 hours in basal medium. Before addition of 3H-deoxy-glucose (in what follows: the tracer) the cells were washed in warm (approximately 37° C.) assay buffer (PBS with 1 mM MgCl2 and 2 mM CaCl2), HEPES and 0.1% Human serum albumin) and the cells were incubated with the tracer for 1 hour. This incubation was terminated by washing twice in ice cold assay buffer. The cells were lysed with Triton X-100 and lysates transferred to a 96 wells plate, microscint-40 (commercially available from, e.g., Perkin Elmer) was added and amount of tracer counted in a TOP-counter (e.g. a Packard top-counter from Perkin Elmer). The EC50 and Emax of the FGF21 compound in question were calculated. The results which are shown in tables 4-5 below indicate the EC50 (potency) and Emax (efficacy) of the FGF21 analogues and derivatives, respectively.

FGF receptor/BKL complex = experiment: FGF receptor potency in an Erk phosphorylation assay in HEK293 overexpressing human BKL; assay type: cell-based; conditions: for EC50: HEK293/BKL cells, pERK after 12 minutes
FGF receptor/BKL complex, sequence (Q86Z14 whole entry, one chain of several): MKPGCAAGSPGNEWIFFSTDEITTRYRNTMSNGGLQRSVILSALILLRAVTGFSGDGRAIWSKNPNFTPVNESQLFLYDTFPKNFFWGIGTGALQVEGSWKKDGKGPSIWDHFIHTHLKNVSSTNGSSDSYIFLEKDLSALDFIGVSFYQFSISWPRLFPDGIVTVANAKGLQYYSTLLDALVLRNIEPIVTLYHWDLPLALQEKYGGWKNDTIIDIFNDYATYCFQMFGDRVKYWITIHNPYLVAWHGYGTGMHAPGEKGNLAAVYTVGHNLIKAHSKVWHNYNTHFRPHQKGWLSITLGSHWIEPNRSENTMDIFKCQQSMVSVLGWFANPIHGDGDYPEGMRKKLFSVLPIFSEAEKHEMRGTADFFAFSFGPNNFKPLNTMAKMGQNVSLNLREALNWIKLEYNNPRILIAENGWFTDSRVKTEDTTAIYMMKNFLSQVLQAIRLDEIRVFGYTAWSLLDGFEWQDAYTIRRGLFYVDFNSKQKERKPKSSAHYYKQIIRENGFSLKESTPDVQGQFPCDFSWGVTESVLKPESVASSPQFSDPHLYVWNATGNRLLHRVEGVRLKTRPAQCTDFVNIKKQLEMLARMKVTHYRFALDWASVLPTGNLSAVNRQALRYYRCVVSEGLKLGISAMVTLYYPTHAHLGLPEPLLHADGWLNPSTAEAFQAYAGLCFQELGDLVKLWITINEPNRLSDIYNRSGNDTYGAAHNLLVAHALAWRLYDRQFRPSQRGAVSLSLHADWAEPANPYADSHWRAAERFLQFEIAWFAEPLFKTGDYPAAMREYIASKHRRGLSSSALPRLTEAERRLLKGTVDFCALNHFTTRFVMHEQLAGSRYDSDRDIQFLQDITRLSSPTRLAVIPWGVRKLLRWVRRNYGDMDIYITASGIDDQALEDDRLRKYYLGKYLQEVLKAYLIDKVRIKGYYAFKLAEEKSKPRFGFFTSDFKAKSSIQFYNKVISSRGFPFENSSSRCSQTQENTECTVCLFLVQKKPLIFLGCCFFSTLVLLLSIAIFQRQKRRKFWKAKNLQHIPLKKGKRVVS
Method: In order to test the binding of the FGF21 derivatives to albumin, the assay was performed in the absence of serum albumin as well as in the presence of human serum albumin (HSA) (0.1% final assay concentration). An increase in EC50 value (decrease in potency) in the presence of serum albumin for FGF21 derivatives would indicate binding to serum albumin and represents a method to predict a protracted pharmacokinetic profile of the test substance in animal models. MetFGF21 (SEQ ID NO:2) is included for reference.
HEK293 cells endogenously express several FGF receptors, including FGFR1c, FGFR3c and FGFR4. These cells are unresponsive to FGF21 until transfected with the co-receptor beta-klotho (BKL). Activation of the FGF receptor/BKL complex leads to activation of the MAPK/ERK signalling pathway and phosphorylation of ERK. The level of phosphorylated ERK (pERK) at a given time point increases with increasing concentrations of FGF21. As described below the level of pERK is measured after 12 minutes of stimulation with a range of FGF21 analogue concentrations.
The HEK293/beta-klotho cells are seeded with 30.000 cells/well in 96 well plates in DMEM (BioWhittaker #BE12-604F/U1), supplemented with 10% FCS (Gibco #16140-071), 1% penicillin/streptomycin (Gibco #15140), 100 µg/ml Hygromycin B, (Calbiochem, # 400052). Two days later and 2 hours before addition of compound the cell medium is exchanged with 100 ∞l basal medium (DMEM (BioWhittaker #BE12-604F/U1)). The FGF21 analogues are diluted in assay medium (DMEM (BioWhittaker #BE12-604F/U1) supplemented with 0.02% Tween20), warmed to 37° C., added to the cells (100 μl) and incubated at 37° C. for 12 minutes. The FGF21 derivatives were also tested in the presence of 0.1% HSA (Sigma—A1887). All medium is quickly removed and 50 μl lysis buffer is added pr. well. The plate is shaken for 5 minutes and the lysate is ready for measurement of pERK. pERK is measured in 384 well plates with the AlphaScreen SureFire kit (PerkinElmer #TGRES10K). This kit is based on ERK and pERK specific antibodies coupled to donor and acceptor beads. The presence of pERK will bring acceptor and donor beads in close proximity and a signal is generated that is read on EnVision. The data are analysed using GraphPad Prism and the potency of the FGF21 proteins is described as absolute EC50 value.

[1] = presence of 0.1% HSA, read-out: EC50 (0.1% HSA)

Molecule | EC50 (3T3-L1 adipocytes) | Glucose uptake Emax (3T3-L1 adipocytes) | EC50 (FGF receptor/BKL complex; absence of HSA, read-out: EC50) | EC50 (FGF receptor/BKL complex; [1]) | potency in HEK293/BKL cells compared with MetFGF21 or corresponding analogue (in words) (FGF receptor/BKL complex; absence of HSA)
S{Beta-178}-[2-[2-[[2-[2-[2-[[2-[2-[2-[[(4S)-4-carboxy-4-(15-carboxypentadecanoyl-amino)butanoyl]amino]ethoxy]ethoxy]acetyl]amino]ethoxy]ethoxy]acetyl]amino]-ethylamino]-2-oxoethyl]-Ala[Gln121,Leu168,Cys178]FGF21 [Compound 11] | 186 nM | 59% | 167 nM | 137 nM | –
B1 | – | – | 4 nM | 2.1 nM | –
B2 | – | – | 4 nM | 4.7 nM | –
B3 | – | – | 5 nM | 3 nM | –
B4 | – | – | 4 nM | 14 nM | –
B5 | – | – | 26.4 nM | 138 nM | –
B6 | – | – | 24.7 nM | 132 nM | –
B7 | 2.6 nM | 102% | 2.3 nM | – | potency similar to both MetFGF21 and Compound 2
B8 | 5 nM | 74% | 27 nM | – | only slightly decreased as compared to MetFGF21
